In PMC8103725 (FASEB BioAdvances, 2021):

B1: His6-EGFP-KRIT1 (WT) FERM domain (417–736) (domain or fragment, human, UniProt O00522 417-736, looked up)
chain: KPYEKVRIYRMDGSYRSVELKHGNNTTVQQIMEGMRLSQETQQYFTIWICSENLSLQLKPYHKPLQHVRDWPEILAELTNLDPQRETPQLFLRRDVRLPLEVEKQIEDPLAILILFDEARYNLLKGFYTAPDAKLITLASLLLQIVYGNYESKKHKQGFLNEENLKSIVPVTKLKSKAPHWTNRILHEYKNLSTSEGVSKEMHHLQRMFLQNCWEIPTYGAAFFTGQIFTKASPSNHKVIPVYVGVNIKGLHLLNMETKALLISLKYGCFMWQLGDTDTCFQIHSMENKMSFIVHTKQAGLVVKLLMKLNGQLMPTERNS
B2: biotinylated HEG1 cytoplasmic tail (a.a. 1274–1381) (domain or fragment, UniProt Q9ULI3 1274-1381, looked up)
chain: RKNKNDISKLIFKSGDFQMSPYAEYPKNPRSQEWGREAIEMHENGSTKNLLQMTDVYYSPTSVRNPELERNGLYPAYTGLPGSRHSCIFPGQYNPSFISDESRRRDYF
modifications: biotin on the in vivo biotinylation peptide tag

Key:
[1] = target: B2; test: flow cytometry on beads
[2] = target: B1; test: flow cytometry on beads

Binder: B1
- EC50 [1]: 32.4 nM

Binder: B2
- binding result [2]: binds
